The supplement of paper PMC9732359
± gives the uncertainty stated by the source.

Assay: protein stability index of a GFP-peptide fusion (yeast GPS) (PSI 1-4); higher = more stable; sorted into four equal gates, so the index is relative within each strain
Procedure, shortened: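 Tiled 17-residue yeast protein peptides were fused downstream of GFP in a plasmid that also expresses Cherry, and the pooled library was carried in yeast. Mid-log cultures in leucine-free medium were sorted into four equal gates by GFP/Cherry fluorescence ratio, and plasmids from each gate were PCR-amplified and Illumina-sequenced, with reads assigned to strains by barcodes. The protein stability index for each peptide was each gate's read frequency times its gate number, summed.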

| Sequence | protein stability index (doa10∆) | protein stability index (pdr5∆) | protein stability index (san1∆) | protein stability index (ubr1∆) |
| --- | --- | --- | --- | --- |
| NGFMHAGTTDNSFIKAN [RPN2] | 1.24 ± 0.055 | 1.33 ± 0.045 | 1.35 ± 0.082 | 1.26 ± 0.051 |
| EAPFLTSGTSSEQFNVW [GAL11] | 2.56 ± 0.091 | 3.27 ± 0.072 | 3.02 ± 0.062 | 3.21 ± 0.13 |
| QDSNVMPGSQINSPMPQ [SNF2] | 3.26 ± 0.2 | 3.12 ± 0.11 | 3.32 ± 0.12 | 3.12 ± 0.17 |
| VDIRVGKKSSSSTKDYL [RET1] | 3.42 ± 0.29 | 3.37 ± 0.12 | 3.56 ± 0.13 | 2.65 ± 0.18 |
| EISSQIEILVKDNECSS [RRI2] | 1.5 ± 0.11 | 1.25 ± 0.15 | – | 1.16 ± 0.069 |
| ALLQRLKTNGKQNNKDF [MTW1] | 2.97 ± 0.1 | 3.33 ± 0.14 | 3.04 ± 0.13 | 2.28 ± 0.091 |
| INSGTNSANGSSLNGTN [SSN3] | 2.55 ± 0.056 | 2.75 ± 0.055 | 2.82 ± 0.05 | 2.7 ± 0.041 |
| DSLENNEGVPSPMLSIS [FAS1] | 3.08 ± 0.077 | 2.56 ± 0.062 | 2.4 ± 0.1 | 3.29 ± 0.094 |
| LEPDYQAPFSTSTKDKN [MED1] | 2.84 ± 0.075 | 3 ± 0.08 | 2.81 ± 0.084 | 3.08 ± 0.074 |
| IAEIKKTPLLKQYLSAS [RPL6A] | 2.65 ± 0.063 | 2.47 ± 0.065 | 2.31 ± 0.065 | 2.25 ± 0.047 |
| ETDEYISYTSHIEGVVI [RPN1] | 3.13 ± 0.1 | 3.44 ± 0.17 | – | 3.08 ± 0.08 |
| VFNNGIVVLVPKFGVEG [DIS3] | 2.22 ± 0.073 | 2.24 ± 0.072 | 2.27 ± 0.074 | 2.32 ± 0.053 |
| LLSDVVSTSSGAAANNN [YJL041W/NSP1] | 3.24 ± 0.077 | 3.06 ± 0.11 | 3.32 ± 0.047 | 3.52 ± 0.11 |
| KLTGDDQKFGVPVRSFK [ASC1] | 2.36 ± 0.16 | 3.16 ± 0.12 | 2.77 ± 0.1 | 3 ± 0.1 |
| FSNVNELQEKNVELLNC [YIL149C/MLP2] | 3.09 ± 0.082 | 3.29 ± 0.13 | 3.06 ± 0.083 | 3.1 ± 0.075 |
| KEEFSSDESIERLMTWK [RRI2] | 2.49 ± 0.08 | 2.77 ± 0.076 | 2.55 ± 0.11 | 2.43 ± 0.17 |
| AHNPELERYVKRCMDDL [RPO31] | 3.33 ± 0.062 | 3.45 ± 0.062 | 3.41 ± 0.037 | 3.35 ± 0.04 |
| YDKLPAGQNATVAVMSY [RET1] | 1.17 ± 0.046 | 1.31 ± 0.046 | 1.33 ± 0.13 | 1.18 ± 0.048 |
| KTKKLNLSAFKIVYIAP [BRR2] | 2.13 ± 0.056 | 2.1 ± 0.052 | 2.19 ± 0.069 | 2.27 ± 0.052 |
| WCCRSGSAADTQAIADI [PRE3] | 2.89 ± 0.12 | 3.03 ± 0.099 | 2.85 ± 0.11 | 2.93 ± 0.077 |
| SSKLQLTKKYSFKIFVD [RRP42] | 2.19 ± 0.09 | 1.76 ± 0.062 | 1.76 ± 0.086 | 2.06 ± 0.044 |
| AAVLSNLQGDLQAIQEK [ITC1] | – | – | 3.31 ± 0.16 | – |
| TTLVTRREELQQRIREI [SMC3] | 3.06 ± 0.2 | – | – | – |
| QSQPIANQSATSTPPPP [SNF5] | 2.82 ± 0.044 | 2.66 ± 0.037 | 2.61 ± 0.038 | 2.63 ± 0.034 |
| FRAVGEGNAQLVAIFGG [FAS1] | 1.17 ± 0.043 | 1.55 ± 0.063 | 1.51 ± 0.1 | 1.36 ± 0.055 |
| TGAGVDVNTNANANANA [SNF11] | 3.12 ± 0.074 | 3.31 ± 0.07 | 3.19 ± 0.045 | 3.34 ± 0.051 |
| DYISGISVGLYDTTPLL [SKI6] | 2.42 ± 0.12 | 2.28 ± 0.1 | 1.84 ± 0.084 | 2.26 ± 0.13 |

| Sequence | protein stability index (doa10∆) | protein stability index (pdr5∆) | protein stability index (san1∆) | protein stability index (ubr1∆) |
| --- | --- | --- | --- | --- |
| VPISTSQTNNSFLSGVK [SIR4] | 2.56 ± 0.054 | 2.73 ± 0.07 | 2.63 ± 0.067 | 2.95 ± 0.057 |
| PRGLRSLTTVWAEHLSD [RPL3] | 2.74 ± 0.12 | 2.83 ± 0.17 | – | 2.72 ± 0.16 |
| TQYATSQKTKTIQSDLN [SMC2] | 2.21 ± 0.088 | 2.34 ± 0.072 | 2.1 ± 0.11 | 2.85 ± 0.05 |
| RIQKIISKRKEELEEEF [YIL149C/MLP2] | 3.13 ± 0.12 | 2.47 ± 0.13 | 3.02 ± 0.18 | 2.86 ± 0.13 |
| VGKVMNKNQETAISVAK [RPT6] | – | 3.55 ± 0.21 | 3.23 ± 0.082 | 3.4 ± 0.11 |
| EALFQSRPDILSKIKFP [YCG1] | 2.75 ± 0.067 | 2.62 ± 0.057 | 2.82 ± 0.067 | 3.13 ± 0.058 |
| GISINNMMEHWDYLQLT [RPO31] | 2.84 ± 0.087 | 2.81 ± 0.073 | 2.8 ± 0.14 | 2.65 ± 0.065 |
| SAQSIASAKSVRSGVSK [YAR002W/NUP60] | 2.88 ± 0.072 | 2.93 ± 0.092 | 3 ± 0.069 | 2.96 ± 0.057 |
| IHIDALELAGMDALYEK [SIR3] | 2.97 ± 0.1 | 3.04 ± 0.098 | 2.71 ± 0.07 | 2.93 ± 0.079 |
| PFDKKSNSALFRAVGEG [FAS1] | 2.92 ± 0.074 | 2.92 ± 0.082 | 2.85 ± 0.052 | 2.91 ± 0.063 |
| IEQGIPKHSYLSGNPLT [SIR4] | 2.86 ± 0.07 | 2.88 ± 0.076 | 3.13 ± 0.17 | 2.96 ± 0.061 |
| HISFNFSMLQMAFEASA [BRR2] | 1.42 ± 0.075 | 1.45 ± 0.066 | 1.41 ± 0.23 | 1.24 ± 0.06 |
| SKSDSDSEERDPKLEKC [ITC1] | 3 ± 0.14 | 2.97 ± 0.13 | 2.62 ± 0.11 | 1.84 ± 0.058 |
| QVVTDYNILGNLGIPKI [SSN2] | 2.51 ± 0.069 | 2.96 ± 0.072 | 2.37 ± 0.1 | 2.27 ± 0.06 |
| GRIPNVPVIVKARFVSK [RPL28] | 2.32 ± 0.025 | 2.575 ± 0.024 | 2.599 ± 0.025 | 2.648 ± 0.021 |
| WQEYSSVFKGGMQNLIK [SRP14] | 3.1 ± 0.12 | 3.44 ± 0.13 | 2.92 ± 0.14 | 3.16 ± 0.17 |
| NDFFIIYYTPAFFHLFA [YJL039C/NUP192] | 1.41 ± 0.058 | 1.57 ± 0.043 | 1.62 ± 0.073 | 1.58 ± 0.042 |
| TNQLKSLKGLQSKLKDV [RPN8] | – | 1.59 ± 0.23 | 2.62 ± 0.19 | 1.36 ± 0.13 |
| YYKKFLIEPLPTESYLQ [BRR2] | 1.85 ± 0.055 | 2.58 ± 0.066 | 1.78 ± 0.13 | 2.48 ± 0.055 |
| VNESRNSDDIIDVDMDA [SRB5] | 2.27 ± 0.065 | 2.2 ± 0.053 | 2.57 ± 0.078 | 2.59 ± 0.052 |
| IQNDEEYDTPALFFDPS [PRP8] | 2.76 ± 0.073 | 3.05 ± 0.056 | 2.73 ± 0.085 | 2.86 ± 0.071 |
| LDLANSGDESNVISSKD [YDL116W/NUP84] | 3.31 ± 0.09 | 3.31 ± 0.067 | 3.25 ± 0.051 | 3.26 ± 0.063 |
| LPVASPFHSHLLVPASD [FAS1] | 1.61 ± 0.053 | 1.62 ± 0.062 | 1.98 ± 0.063 | 1.96 ± 0.044 |
| QLLGDVMTYKGEVLGIT [RPO31] | 3.28 ± 0.11 | 3.43 ± 0.069 | 3.24 ± 0.14 | 3.33 ± 0.075 |
| GTQLATLKNRGLPLGIA [YGR119C/NUP57] | 2.04 ± 0.067 | 2.29 ± 0.059 | 2.57 ± 0.1 | 2.23 ± 0.031 |
| AFPHLYNSRPRSVRIPW [PRP8] | 2.94 ± 0.1 | 2.45 ± 0.084 | 1.7 ± 0.13 | 2.59 ± 0.066 |
| RLAAPHHWLLDKLSGCY [RPS4A] | 2.31 ± 0.23 | 2.2 ± 0.1 | 2.26 ± 0.14 | 2.35 ± 0.15 |
